# Data as given in IntAct's records for PubMed 18256029.
# B1: Programmed cell death protein 6 (Homo sapiens), O75340 (parent)
# chain: MAAYSYRPGPGAGPGPAAGAALPDQSFLWNVFQRVDKDRSGVISDTELQQALSNGTWTPFNPVTVRSIISMFDRENKAGVNFSEFTGVWKYITDWQNVFRTYDRDNSGMIDKNELKQALSGFGYRLSDQFHDILIRKFDRQGRGQIAFDDFIQGCIVLQRLTDIFRRYDTDQDGWIQVSYEQYLSMVFSIV
# partner: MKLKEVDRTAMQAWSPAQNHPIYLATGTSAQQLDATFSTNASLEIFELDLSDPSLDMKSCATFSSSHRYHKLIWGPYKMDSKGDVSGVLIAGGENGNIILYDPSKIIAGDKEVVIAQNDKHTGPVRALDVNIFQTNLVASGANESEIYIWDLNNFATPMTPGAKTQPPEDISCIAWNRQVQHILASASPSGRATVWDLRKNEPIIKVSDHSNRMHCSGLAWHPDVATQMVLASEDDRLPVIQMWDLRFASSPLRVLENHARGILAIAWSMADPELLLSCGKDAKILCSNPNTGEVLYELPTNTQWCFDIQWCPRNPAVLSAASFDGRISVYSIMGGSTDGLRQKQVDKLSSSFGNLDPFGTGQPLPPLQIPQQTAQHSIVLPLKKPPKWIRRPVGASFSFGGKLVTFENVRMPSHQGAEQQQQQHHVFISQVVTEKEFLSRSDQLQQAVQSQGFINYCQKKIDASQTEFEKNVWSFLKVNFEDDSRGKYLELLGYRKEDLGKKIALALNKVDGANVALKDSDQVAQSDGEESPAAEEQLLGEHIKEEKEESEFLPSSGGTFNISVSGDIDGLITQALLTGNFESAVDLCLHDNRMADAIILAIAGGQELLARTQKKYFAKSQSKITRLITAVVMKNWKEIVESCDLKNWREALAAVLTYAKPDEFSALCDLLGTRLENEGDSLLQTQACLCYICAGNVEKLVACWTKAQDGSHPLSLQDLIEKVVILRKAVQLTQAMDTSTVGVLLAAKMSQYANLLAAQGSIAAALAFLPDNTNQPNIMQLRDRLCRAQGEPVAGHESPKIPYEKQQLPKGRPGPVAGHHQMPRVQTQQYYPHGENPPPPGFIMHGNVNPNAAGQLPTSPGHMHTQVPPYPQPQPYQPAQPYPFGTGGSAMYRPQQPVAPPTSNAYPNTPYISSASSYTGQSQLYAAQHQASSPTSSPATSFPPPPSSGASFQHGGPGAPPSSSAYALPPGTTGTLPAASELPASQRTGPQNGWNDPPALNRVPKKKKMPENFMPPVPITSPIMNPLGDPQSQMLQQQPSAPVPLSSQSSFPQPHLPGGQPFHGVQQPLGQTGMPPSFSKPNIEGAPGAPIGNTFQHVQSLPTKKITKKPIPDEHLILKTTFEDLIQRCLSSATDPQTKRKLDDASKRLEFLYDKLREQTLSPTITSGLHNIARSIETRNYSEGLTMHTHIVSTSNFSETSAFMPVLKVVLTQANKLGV
# B2: Programmed cell death protein 6 (Homo sapiens), O75340 (parent)
# chain: B1 chain
# B3: Programmed cell death protein 6 (Homo sapiens), O75340 (parent)
# chain: B1 chain
# partner: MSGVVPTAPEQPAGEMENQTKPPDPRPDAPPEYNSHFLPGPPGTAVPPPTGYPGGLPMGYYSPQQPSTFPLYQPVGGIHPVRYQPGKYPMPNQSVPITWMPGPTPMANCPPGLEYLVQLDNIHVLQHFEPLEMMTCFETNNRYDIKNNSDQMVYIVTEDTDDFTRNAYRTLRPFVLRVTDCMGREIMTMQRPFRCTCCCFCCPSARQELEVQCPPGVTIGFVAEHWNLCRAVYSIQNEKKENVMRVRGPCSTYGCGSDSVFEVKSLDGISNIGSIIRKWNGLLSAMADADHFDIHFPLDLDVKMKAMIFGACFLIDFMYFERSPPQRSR
# B4: Programmed cell death protein 6 (Homo sapiens), O75340 (parent)
# chain: B1 chain
# partner: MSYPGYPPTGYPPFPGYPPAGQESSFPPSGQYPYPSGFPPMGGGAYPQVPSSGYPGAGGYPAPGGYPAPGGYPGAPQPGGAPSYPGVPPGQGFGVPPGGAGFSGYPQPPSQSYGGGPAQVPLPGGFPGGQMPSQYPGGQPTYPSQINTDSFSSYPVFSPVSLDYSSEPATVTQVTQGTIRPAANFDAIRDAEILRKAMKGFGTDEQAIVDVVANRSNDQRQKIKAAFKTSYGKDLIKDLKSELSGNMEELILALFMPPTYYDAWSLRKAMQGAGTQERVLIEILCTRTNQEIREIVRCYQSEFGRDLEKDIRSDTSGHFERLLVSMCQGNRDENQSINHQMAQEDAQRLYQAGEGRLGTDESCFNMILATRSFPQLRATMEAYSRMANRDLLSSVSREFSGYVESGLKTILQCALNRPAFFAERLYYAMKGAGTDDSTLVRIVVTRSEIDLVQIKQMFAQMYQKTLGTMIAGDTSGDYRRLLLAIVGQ
# Variants of: B1
# Conditions: with sc31a_human SEC31A
row,Variant,effect of a mutation on the interaction
1,F60A,disrupting interaction

# Variants of: B2
# Conditions: with pls3_human PLSCR3, Q9NRY6
# Sequence of pls3_human PLSCR3, Q9NRY6 (Q9NRY6 whole entry): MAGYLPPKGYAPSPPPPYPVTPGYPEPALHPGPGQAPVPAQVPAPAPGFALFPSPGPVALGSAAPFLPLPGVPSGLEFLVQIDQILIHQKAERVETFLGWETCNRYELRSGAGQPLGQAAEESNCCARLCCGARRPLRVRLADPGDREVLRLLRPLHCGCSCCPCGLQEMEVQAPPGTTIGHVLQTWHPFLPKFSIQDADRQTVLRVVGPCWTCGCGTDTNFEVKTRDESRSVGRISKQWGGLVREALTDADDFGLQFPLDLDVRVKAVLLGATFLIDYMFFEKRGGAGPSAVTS
row,Variant,effect of a mutation on the interaction
1,Y91A,disrupting interaction
2,Y180A,disrupting interaction
3,W95A,disrupting interaction
4,F60A,disrupting interaction
5,W57A,decreasing interaction

# Variants of: B2
# Conditions: with pdc6i_human PDCD6IP
row,Variant,effect of a mutation on the interaction
1,Y91A,disrupting interaction
2,Y180A,disrupting interaction
3,W95A,disrupting interaction
4,F60A,disrupting interaction
5,W57A,decreasing interaction

# Variants of: B2
# Conditions: with anx11_human ANXA11, P50995
# Sequence of anx11_human ANXA11, P50995 (P50995 whole entry): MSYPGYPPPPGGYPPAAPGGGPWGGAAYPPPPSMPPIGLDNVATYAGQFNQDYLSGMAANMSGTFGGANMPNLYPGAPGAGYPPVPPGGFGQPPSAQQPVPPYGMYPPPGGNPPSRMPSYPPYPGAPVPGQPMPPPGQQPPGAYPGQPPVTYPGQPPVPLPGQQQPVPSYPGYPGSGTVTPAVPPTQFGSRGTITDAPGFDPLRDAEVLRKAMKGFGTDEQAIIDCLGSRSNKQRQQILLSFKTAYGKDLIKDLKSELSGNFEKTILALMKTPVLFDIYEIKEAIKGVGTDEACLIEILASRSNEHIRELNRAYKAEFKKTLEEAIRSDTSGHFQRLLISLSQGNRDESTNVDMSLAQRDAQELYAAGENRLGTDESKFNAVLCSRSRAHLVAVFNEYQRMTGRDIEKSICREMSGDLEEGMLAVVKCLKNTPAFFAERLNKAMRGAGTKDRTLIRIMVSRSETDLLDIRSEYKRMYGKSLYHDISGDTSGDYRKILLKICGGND
row,Variant,effect of a mutation on the interaction
1,Y91A,disrupting interaction
2,Y180A,disrupting interaction
3,W95A,disrupting interaction
4,F60A,disrupting interaction
5,W57A,decreasing interaction

# Variants of: B2
# Conditions: with ts101_human TSG101, Q99816
# Sequence of ts101_human TSG101, Q99816 (Q99816 whole entry): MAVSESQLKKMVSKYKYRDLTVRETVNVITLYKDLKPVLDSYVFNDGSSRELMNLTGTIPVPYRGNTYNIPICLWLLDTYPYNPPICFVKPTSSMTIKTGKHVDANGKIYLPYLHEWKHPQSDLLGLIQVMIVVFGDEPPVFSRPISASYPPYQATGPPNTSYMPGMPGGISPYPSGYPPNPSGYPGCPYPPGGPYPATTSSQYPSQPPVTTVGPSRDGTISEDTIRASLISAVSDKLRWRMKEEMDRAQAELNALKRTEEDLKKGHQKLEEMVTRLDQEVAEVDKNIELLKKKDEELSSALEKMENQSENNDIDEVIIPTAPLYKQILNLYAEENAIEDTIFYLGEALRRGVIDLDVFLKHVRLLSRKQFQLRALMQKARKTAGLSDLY
row,Variant,effect of a mutation on the interaction
1,Y180A,disrupting interaction
2,W95A,disrupting interaction

# Variants of: B2
# Conditions: with pls3_human PLSCR3, Q9NRY6
# Remark: another data set of the same source
row,Variant,effect of a mutation on the interaction
1,E47A;E114A,decreasing interaction

# Variants of: B3
# Conditions: with pls4_human PLSCR4, Q9NRQ2
row,Variant,effect of a mutation on the interaction
1,E47A;E114A,decreasing interaction

# Variants of: B4
# Conditions: with anxa7_human ANXA7, P20073
row,Variant,effect of a mutation on the interaction
1,W95A,disrupting interaction
2,W57A,decreasing interaction
3,F60A,disrupting interaction
4,Y180A,disrupting interaction
5,Y91A,disrupting interaction
